{
  "source": "paper PMC2114734",
  "biological_target": "High affinity thrombin receptor of NIL hamster fibroblasts (Syrian hamster (endogenous in NIL cells))",
  "assay": "radioligand binding",
  "data": [
    {"substance": "Human alpha-thrombin (from UniProt P00734 364-622; P00734 364-622) (enzyme)", "values": [
      {"measurement": "specific 125I-thrombin binding (cpm/ug protein)", "value": 439}
    ]}
  ]
}
